Laboratory results published in paper PMC8465894.

Legend:
[1] = rescue of surface CD55 in PIGS-KO cells, flow cytometry; conditions: glycan lost; control: wild-type PIGS
[2] = rescue of surface CD55 in PIGT-KO cells, flow cytometry; conditions: glycan lost; control: wild-type PIGT
[3] = rescue of surface CD55 in GPAA1-KO cells, flow cytometry; conditions: glycan lost; control: wild-type GPAA1

B1: PIGS: N267Q (protein)
parent chain: MAAAGAAATHLEVARGKRAALFFAAVAIVLGLPLWWKTTETYRASLPYSQISGLNALQLRLMVPVTVVFTRESVPLDDQEKLPFTVVHEREIPLKYKMKIKCRFQKAYRRALDHEEEALSSGSVQEAEAMLDEPQEQAEGSLTVYVISEHSSLLPQDMMSYIGPKRTAVVRGIMHREAFNIIGRRIVQVAQAMSLTEDVLAAALADHLPEDKWSAEKRRPLKSSLGYEITFSLLNPDPKSHDVYWDIEGAVRRYVQPFLNALGAAGNFSVDSQILYYAMLGVNPRFDSASSSYYLDMHSLPHVINPVESRLGSSAASLYPVLNFLLYVPELAHSPLYIQDKDGAPVATNAFHSPRWGGIMVYNVDSKTYNASVLPVRVEVDMVRVMEVFLAQLRLLFGIAQPQLPPKCLLSGPTSEGLMTWELDRLLWARSVENLATATTTLTSLAQLLGKISNIVIKDDVASEVYKAVAAVQKSAEELASGHLASAFVASQEAVTSSELAFFDPSLLHLLYFPDDQKFAIYIPLFLPMAVPILLSLVKIFLETRKSWRKPEKTD
[1]
  enzymatic_activity: no change

B2: PIGS: N370Q (protein)
parent chain: MAAAGAAATHLEVARGKRAALFFAAVAIVLGLPLWWKTTETYRASLPYSQISGLNALQLRLMVPVTVVFTRESVPLDDQEKLPFTVVHEREIPLKYKMKIKCRFQKAYRRALDHEEEALSSGSVQEAEAMLDEPQEQAEGSLTVYVISEHSSLLPQDMMSYIGPKRTAVVRGIMHREAFNIIGRRIVQVAQAMSLTEDVLAAALADHLPEDKWSAEKRRPLKSSLGYEITFSLLNPDPKSHDVYWDIEGAVRRYVQPFLNALGAAGNFSVDSQILYYAMLGVNPRFDSASSSYYLDMHSLPHVINPVESRLGSSAASLYPVLNFLLYVPELAHSPLYIQDKDGAPVATNAFHSPRWGGIMVYNVDSKTYNASVLPVRVEVDMVRVMEVFLAQLRLLFGIAQPQLPPKCLLSGPTSEGLMTWELDRLLWARSVENLATATTTLTSLAQLLGKISNIVIKDDVASEVYKAVAAVQKSAEELASGHLASAFVASQEAVTSSELAFFDPSLLHLLYFPDDQKFAIYIPLFLPMAVPILLSLVKIFLETRKSWRKPEKTD
[1]
  enzymatic_activity: no change

B3: PIGT: N164Q (protein)
parent chain: MAAAMPLALLVLLLLGPGGWCLAEPPRDSLREELVITPLPSGDVAATFQFRTRWDSELQREGVSHYRLFPKALGQLISKYSLRELHLSFTQGFWRTRYWGPPFLQAPSGAELWVWFQDTVTDVDKSWKELSNVLSGIFCASLNFIDSTNTVTPTASFKPLGLANDTDHYFLRYAVLPREVVCTENLTPWKKLLPCSSKAGLSVLLKADRLFHTSYHSQAVHIRPVCRNARCTSISWELRQTLSVVFDAFITGQGKKDWSLFRMFSRTLTEPCPLASESRVYVDITTYNQDNETLEVHPPPTTTYQDVILGTRKTYAIYDLLDTAMINNSRNLNIQLKWKRPPENEAPPVPFLHAQRYVSGYGLQKGELSTLLYNTHPYRAFPVLLLDTVPWYLRLYVHTLTITSKGKENKPSYIHYQPAQDRLQPHLLEMLIQLPANSVTKVSIQFERALLKWTEYTPDPNHGFYVSPSVLSALVPSMVAAKPVDWEESPLFNSLFPVSDGSNYFVRLYTEPLLVNLPTPDFSMPYNVICLTCTVVAVCYGSFYNLLTRTFHIEEPRTGGLAKRLANLIRRARGVPPL
[2]
  enzymatic_activity: no change

B4: PIGT: N291Q (protein)
parent chain: MAAAMPLALLVLLLLGPGGWCLAEPPRDSLREELVITPLPSGDVAATFQFRTRWDSELQREGVSHYRLFPKALGQLISKYSLRELHLSFTQGFWRTRYWGPPFLQAPSGAELWVWFQDTVTDVDKSWKELSNVLSGIFCASLNFIDSTNTVTPTASFKPLGLANDTDHYFLRYAVLPREVVCTENLTPWKKLLPCSSKAGLSVLLKADRLFHTSYHSQAVHIRPVCRNARCTSISWELRQTLSVVFDAFITGQGKKDWSLFRMFSRTLTEPCPLASESRVYVDITTYNQDNETLEVHPPPTTTYQDVILGTRKTYAIYDLLDTAMINNSRNLNIQLKWKRPPENEAPPVPFLHAQRYVSGYGLQKGELSTLLYNTHPYRAFPVLLLDTVPWYLRLYVHTLTITSKGKENKPSYIHYQPAQDRLQPHLLEMLIQLPANSVTKVSIQFERALLKWTEYTPDPNHGFYVSPSVLSALVPSMVAAKPVDWEESPLFNSLFPVSDGSNYFVRLYTEPLLVNLPTPDFSMPYNVICLTCTVVAVCYGSFYNLLTRTFHIEEPRTGGLAKRLANLIRRARGVPPL
[2]
  enzymatic_activity: no change

B5: PIGT: N327Q (protein)
parent chain: MAAAMPLALLVLLLLGPGGWCLAEPPRDSLREELVITPLPSGDVAATFQFRTRWDSELQREGVSHYRLFPKALGQLISKYSLRELHLSFTQGFWRTRYWGPPFLQAPSGAELWVWFQDTVTDVDKSWKELSNVLSGIFCASLNFIDSTNTVTPTASFKPLGLANDTDHYFLRYAVLPREVVCTENLTPWKKLLPCSSKAGLSVLLKADRLFHTSYHSQAVHIRPVCRNARCTSISWELRQTLSVVFDAFITGQGKKDWSLFRMFSRTLTEPCPLASESRVYVDITTYNQDNETLEVHPPPTTTYQDVILGTRKTYAIYDLLDTAMINNSRNLNIQLKWKRPPENEAPPVPFLHAQRYVSGYGLQKGELSTLLYNTHPYRAFPVLLLDTVPWYLRLYVHTLTITSKGKENKPSYIHYQPAQDRLQPHLLEMLIQLPANSVTKVSIQFERALLKWTEYTPDPNHGFYVSPSVLSALVPSMVAAKPVDWEESPLFNSLFPVSDGSNYFVRLYTEPLLVNLPTPDFSMPYNVICLTCTVVAVCYGSFYNLLTRTFHIEEPRTGGLAKRLANLIRRARGVPPL
[2]
  enzymatic_activity: no change

B6: GPAA1: N203Q (protein)
parent chain: MGLLSDPVRRRALARLVLRLNAPLCVLSYVAGIAWFLALVFPPLTQRTYMSENAMGSTMVEEQFAGGDRARAFARDFAAHRKKSGALPVAWLERTMRSVGLEVYTQSFSRKLPFPDETHERYMVSGTNVYGILRAPRAASTESLVLTVPCGSDSTNSQAVGLLLALAAHFRGQIYWAKDIVFLVTEHDLLGTEAWLEAYHDVNVTGMQSSPLQGRAGAIQAAVALELSSDVVTSLDVAVEGLNGQLPNLDLLNLFQTFCQKGGLLCTLQGKLQPEDWTSLDGPLQGLQTLLLMVLRQASGRPHGSHGLFLRYRVEALTLRGINSFRQYKYDLVAVGKALEGMFRKLNHLLERLHQSFFLYLLPGLSRFVSIGLYMPAVGFLLLVLGLKALELWMQLHEAGMGLEEPGGAPGPSVPLPPSQGVGLASLVAPLLISQAMGLALYVLPVLGQHVATQHFPVAEAEAVVLTLLAIYAAGLALPHNTHRVVSTQAPDRGWMALKLVALIYLALQLGCIALTNFSLGFLLATTMVPTAALAKPHGPRTLYAALLVLTSPAATLLGSLFLWRELQEAPLSLAEGWQLFLAALAQGVLEHHTYGALLFPLLSLGLYPCWLLFWNVLFWK
[3]
  enzymatic_activity: no change
